Reference: article PMC8836243
Like-named read-outs stand apart in the source and are kept apart here.

Assays:
Human CCR7 WT (human) [1] = molecular target: Human CCR7 WT (human) (UniProt P32248)
Human CCR7 WT (human) [2] = molecular target: Human CCR7 WT (human) (UniProt P32248); remark: listed apart in the source

Sequence of UniProt P32248 (P32248 25-378): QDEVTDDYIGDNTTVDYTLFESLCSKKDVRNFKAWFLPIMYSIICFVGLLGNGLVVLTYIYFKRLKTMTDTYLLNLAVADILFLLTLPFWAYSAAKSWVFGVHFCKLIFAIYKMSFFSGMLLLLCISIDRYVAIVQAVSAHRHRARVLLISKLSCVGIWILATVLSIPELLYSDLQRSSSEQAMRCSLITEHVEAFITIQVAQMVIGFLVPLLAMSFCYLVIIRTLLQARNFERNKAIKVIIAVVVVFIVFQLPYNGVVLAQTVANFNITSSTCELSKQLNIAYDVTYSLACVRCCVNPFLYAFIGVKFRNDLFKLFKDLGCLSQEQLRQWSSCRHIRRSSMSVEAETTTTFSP

Row | increase in potency in Gαi signalling (BRET) with 10 μM long C21TP (CCL21 81-111) added (Human CCR7 WT (human) [1]) [fold] | increase in potency in Gαi signalling (BRET) with 10 μM short C21TP (CCL21 89-106) added (Human CCR7 WT (human) [1]) [fold] | increase in potency in Gαi signalling (BRET) with 10 μM long C21TP (CCL21 81-111) added (Human CCR7 WT (human) [2]) [fold] | increase in potency in Gαi signalling (BRET) with 10 μM short C21TP (CCL21 89-106) added (Human CCR7 WT (human) [2]) [fold] | potency in Gαi signalling (BRET), against WT CCL19 (Human CCR7 WT (human) [2]) [fold] | Substance
1 | 19.7 | 16.6 | – | – | – | CCL21 1-91 C80A (from UniProt O00585 24-114) (ligand)
2 | – | – | 3 | 3.5 | 22 | CCL19 K71A K73A R74A R75A (CCL19 AMAAA^71-75) (ligand)
